Experimental data reported in the supplement of paper PMC12764529.
± gives the half width of the 95% confidence interval.

Legend:
[1] = folding stability dG unfold (combined trypsin and chymotrypsin); higher = more stable
How it was run: (§1)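 How resistant each design was to proteolysis was captured as K50, inferred by Bayesian fitting of sequencing counts. Unfolding free energy was then derived relative to a sequence-predicted unfolded-state K50 and a shared folded-state K50, per protease or combined. Digestion used trypsin and chymotrypsin at 11 threefold-diluted concentrations plus a no-protease condition, on mini-proteins under 80 residues without cysteine in a PA-tagged cDNA display construct. Designs were kept only when AlphaFold2 dimer inter-PAE was above 15.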

[2] = folding stability dG unfold from trypsin proteolysis; higher = more stable
How it was run: as §1

[3] = folding stability dG unfold from chymotrypsin proteolysis; higher = more stable
How it was run: as §1

## SAGGSAGGSATTTTAPDGSPVTVYPETGVARVYDPATGLWTRLTTRPDGVVEETPLPPGAPLESAGGSAGGS [r12_997_JUSTAS]
[1]
  folding stability dG unfold: 1.28 ± 0.285 kJ/mol
[2]
  folding stability dG unfold: -2.87 ± 0.962 kJ/mol
[3]
  folding stability dG unfold: 2.51 ± 0.331 kJ/mol

## SAGGSAGGSATVTVERVGNRLLLSFPDGSYYVAELPGEAEVDLASGKITLPANSRVEPVPLERSAGGSAGGS [r20_158_TrMRF]
[1]
  folding stability dG unfold: 3.11 ± 0.121 kJ/mol
[2]
  folding stability dG unfold: 0.25 ± 0.0837 kJ/mol
[3]
  folding stability dG unfold: 4.2 ± 0.0628 kJ/mol

## SAGGSAGGSAVITLKPGETITITATITNADGSTVTITEVVRLPDGRLVVRVTNADGETYEFVLSAGGSAGGS [r12_31_TrROS_Hall]
[1]
  folding stability dG unfold: 14.4 ± 0.372 kJ/mol
[2]
  folding stability dG unfold: 14.8 ± 0.669 kJ/mol
[3]
  folding stability dG unfold: 13.8 ± 0.502 kJ/mol

## SAGGSAGGSAVKIKIEQLGPGYFHITIEQEMMYPDGKSRKMTMTMMFKVNAPPNDPALRELLSAGGSAGGSA [r18_215_TrROS]
[1]
  folding stability dG unfold: 12.4 ± 0.544 kJ/mol
[2]
  folding stability dG unfold: 11.2 ± 0.247 kJ/mol
[3]
  folding stability dG unfold: 12.5 ± 0.368 kJ/mol

## SAGGSAGGSAVPLTVLEEEKGEGTVVVITRGPDGKLIVTTYTKDPNSEKWTEKRTVLAPEELLSAGGSAGGS [r20_70_JUSTAS]
[1]
  folding stability dG unfold: 8.27 ± 0.226 kJ/mol
[2]
  folding stability dG unfold: 7.22 ± 0.092 kJ/mol
[3]
  folding stability dG unfold: 8.69 ± 0.28 kJ/mol

## SAGGSAGGSAVTVDPSSNVVTTTDPATGTSTVTTTPPLPNGTPVLTSTTTTDAAGTPTTTTVTSAGGSAGGS [r12_952_JUSTAS]
[1]
  folding stability dG unfold: 8.52 ± 0.247 kJ/mol
[2]
  folding stability dG unfold: 11 ± 0.502 kJ/mol
[3]
  folding stability dG unfold: 5.76 ± 0.205 kJ/mol

## SAGGSAGGSAVVSVSPDGYLRLAYYPETGELRELPPDVSVEEFLEAFPDVVVLAAPVAPTPESAGGSAGGSA [r18_53_TrMRF]
[1]
  folding stability dG unfold: 5.89 ± 0.201 kJ/mol
[2]
  folding stability dG unfold: 4.02 ± 0.0669 kJ/mol
[3]
  folding stability dG unfold: 6.9 ± 0.121 kJ/mol

## SAGGSAGGSDDDDAKKAMEQMKPPPIPIKIQVKIEYDPSLGWLKVEIHFFGFGLRITGTIPIDSAGGSAGGS [r20_230_TrROS]
[1]
  folding stability dG unfold: 17.1 ± 2.01 kJ/mol
[2]
  folding stability dG unfold: 13.9 ± 0.669 kJ/mol
[3]
  folding stability dG unfold: 19.1 ± 1.3 kJ/mol

## SAGGSAGGSDDTAEFEGPVNVTLTLDGKPVNINAWVTRLPPGWFRIVLPDGVIELPGGNLRVGSAGGSAGGS [r12_790_TrMRF]
[1]
  folding stability dG unfold: 4.86 ± 0.213 kJ/mol
[2]
  folding stability dG unfold: 3.52 ± 0.163 kJ/mol
[3]
  folding stability dG unfold: 5.47 ± 0.289 kJ/mol

## SAGGSAGGSDFPVKILEVEFHPNGSITIVIQAPDGWYIKATFHVPPNGNVKMSIELIPDPDAISAGGSAGGS [r20_23_TrROS]
[1]
  folding stability dG unfold: 16.1 ± 0.795 kJ/mol
[2]
  folding stability dG unfold: 14.1 ± 0.711 kJ/mol
[3]
  folding stability dG unfold: 16.7 ± 0.628 kJ/mol

## SAGGSAGGSDKIKELAKKLKIVKVEKKKDGKYILLVKDEKTGKLYEIEVDLKTNKVTIKELKPSAGGSAGGS [r12_944_TrROS_Hall]
[1]
  folding stability dG unfold: 16 ± 1.63 kJ/mol
[2]
  folding stability dG unfold: 11.7 ± 1.09 kJ/mol
[3]
  folding stability dG unfold: 18 ± 0.544 kJ/mol

## SAGGSAGGSDKYVVVIRVVNKETKKVTTLVFEGLKTPEELKAAVEALLPPGVVKVEIRVVKLPSAGGSAGGS [r20_29_TrROS_Hall]
[1]
  folding stability dG unfold: 13.3 ± 0.628 kJ/mol
[2]
  folding stability dG unfold: 12.1 ± 0.753 kJ/mol
[3]
  folding stability dG unfold: 13.7 ± 0.502 kJ/mol

## SAGGSAGGSDLPIKIKMEPIPPGMPPGQVYRMEIEIPNGWVIRYSFYFTGGKLEFEPMEIKPVSAGGSAGGS [r12_1049_TrROS]
[1]
  folding stability dG unfold: 13.1 ± 1.17 kJ/mol
[2]
  folding stability dG unfold: 9.29 ± 0.795 kJ/mol
[3]
  folding stability dG unfold: 15 ± 0.335 kJ/mol

## SAGGSAGGSDPEFELVRVEVFPFPTATLVRAVARFPPTDEYVEVELVHFPVPDRVLLRVRLLPSAGGSAGGS [r12_14_TrMRF]
[1]
  folding stability dG unfold: 15 ± 0.406 kJ/mol
[2]
  folding stability dG unfold: 12.9 ± 0.268 kJ/mol
[3]
  folding stability dG unfold: 16.4 ± 0.297 kJ/mol

## SAGGSAGGSDPSATISFSFPLPDGSTININITITDEGSGPRIEIDITVTDANNNTAPAKFTIDSAGGSAGGS [r12_33_TrMRF]
[1]
  folding stability dG unfold: 6.9 ± 0.46 kJ/mol
[2]
  folding stability dG unfold: 6.62 ± 0.46 kJ/mol
[3]
  folding stability dG unfold: 5.84 ± 0.586 kJ/mol

## SAGGSAGGSDPTAPVITTVPFPSGAVLTITTYPDSVTITYPSPGTTYTVPASAPIPITYQPALSAGGSAGGS [r12_227_JUSTAS]
[1]
  folding stability dG unfold: 2.04 ± 0.28 kJ/mol
[2]
  folding stability dG unfold: 2.82 ± 0.0628 kJ/mol
[3]
  folding stability dG unfold: 0.363 ± 0.502 kJ/mol

## SAGGSAGGSDPTPVVVEFPFSSEEEAEKKAKEAAEKLKAEGVDIKEVKIEYDPEKGTVTLTLGSAGGSAGGS [r20_155_JUSTAS]
[1]
  folding stability dG unfold: 5.07 ± 0.46 kJ/mol
[2]
  folding stability dG unfold: 5.69 ± 0.18 kJ/mol
[3]
  folding stability dG unfold: 4.46 ± 0.259 kJ/mol

## SAGGSAGGSDVEDIIKKLKIPPGYRMRFPDGKSHKFNNLDDIRNLAEMGMPPDNIDKIQIQPYSAGGSAGGS [r12_430_TrROS]
[1]
  folding stability dG unfold: 0.216 ± 0.628 kJ/mol
[2]
  folding stability dG unfold: -0.637 ± 0.92 kJ/mol
[3]
  folding stability dG unfold: 0.376 ± 1.17 kJ/mol

## SAGGSAGGSEDKYIIRVEVLLPNKKRTYVLEEPEKGIEAFKKRLEKEYPDEPIVEVRIEVLPASAGGSAGGS [r12_429_TrMRF]
[1]
  folding stability dG unfold: 4.98 ± 0.418 kJ/mol
[2]
  folding stability dG unfold: 3.66 ± 0.134 kJ/mol
[3]
  folding stability dG unfold: 5.74 ± 0.46 kJ/mol

## SAGGSAGGSEEKKIKIKIKIERDPENPNTYRITIEDEETGERYELEITVPPPKPKVFFFPKKKSAGGSAGGS [r12_985_TrROS_Hall]
[1]
  folding stability dG unfold: 9.13 ± 0.711 kJ/mol
[2]
  folding stability dG unfold: 9.38 ± 0.0962 kJ/mol
[3]
  folding stability dG unfold: 9.17 ± 0.502 kJ/mol

## SAGGSAGGSEKIIEELKKKFPGLKIDKIEITVKKKKITIELKPPPKVYLTKEELEKKGYKIEKSAGGSAGGS [r12_3_TrROS_Hall]
[1]
  folding stability dG unfold: 3.64 ± 0.92 kJ/mol
[2]
  folding stability dG unfold: 5.55 ± 0.172 kJ/mol
[3]
  folding stability dG unfold: 1.88 ± 1.38 kJ/mol

## SAGGSAGGSEKKPPEVTVVIKLPKGTSLEELLAALPPGAKAEIVEVVKVDEEKNEVYVKIRLTSAGGSAGGS [r12_469_TrROS_Hall]
[1]
  folding stability dG unfold: 10.9 ± 0.397 kJ/mol
[2]
  folding stability dG unfold: 9.44 ± 0.46 kJ/mol
[3]
  folding stability dG unfold: 11.3 ± 0.167 kJ/mol

## SAGGSAGGSEKPPVKTITLVLKVDDAEEAAKALAEELGVEITRIEVTRDENGKVYVRITIRLPSAGGSAGGS [r12_359_TrROS_Hall]
[1]
  folding stability dG unfold: 16.3 ± 0.586 kJ/mol
[2]
  folding stability dG unfold: 15.1 ± 0.418 kJ/mol
[3]
  folding stability dG unfold: 16.7 ± 0.414 kJ/mol

## SAGGSAGGSEKVEIEREFKLPDPNGKPFRFTVEIEVEPRNDGLKIEITEVEGPWMRDAIKKLLSAGGSAGGS [r12_743_TrROS]
[1]
  folding stability dG unfold: 3.79 ± 0.837 kJ/mol
[2]
  folding stability dG unfold: 2.91 ± 0.586 kJ/mol
[3]
  folding stability dG unfold: 3.86 ± 1 kJ/mol

## SAGGSAGGSEKVIVVPSEEALKALEDAGIEVKKIEVFTETVTYYYPPGFPPVTETRTYLLVEVSAGGSAGGS [r12_78_TrROS_Hall]
[1]
  folding stability dG unfold: 8.2 ± 0.347 kJ/mol
[2]
  folding stability dG unfold: 6.09 ± 0.234 kJ/mol
[3]
  folding stability dG unfold: 9.47 ± 0.301 kJ/mol

## SAGGSAGGSELEKALASAKPGEEVTVTVESTTPDGTPSVEIVEVKVEAETPSPGKENLEKNRLVSAGGSAGG [r6_893_JUSTAS]
[1]
  folding stability dG unfold: -0.467 ± 1.84 kJ/mol
[2]
  folding stability dG unfold: -2.52 ± 0.962 kJ/mol
[3]
  folding stability dG unfold: 0.35 ± 0.272 kJ/mol

## SAGGSAGGSELPEGVEVETEPIAEIEITDEDGRKYKISIEAVKIRGPDGKEFLVISVSIEELPSAGGSAGGS [r12_544_TrROS_Hall]
[1]
  folding stability dG unfold: 15.9 ± 2.59 kJ/mol
[2]
  folding stability dG unfold: 13.6 ± 2.34 kJ/mol
[3]
  folding stability dG unfold: 17.4 ± 1.42 kJ/mol

## SAGGSAGGSELPVESIETETYEDPSTGVKTVREKYPGGYVVTKTLYVPPDGPPIELPVEVRPESAGGSAGGS [r12_111_JUSTAS]
[1]
  folding stability dG unfold: 1.78 ± 0.962 kJ/mol
[2]
  folding stability dG unfold: -0.202 ± 0.711 kJ/mol
[3]
  folding stability dG unfold: 2.63 ± 0.347 kJ/mol

## SAGGSAGGSELSDEEIEALRKPPKVRIRVEIVYPDGTVEEREFSSLEEALAAAKERNVTVKILSAGGSAGGS [r12_244_TrROS_Hall]
[1]
  folding stability dG unfold: 9.55 ± 0.372 kJ/mol
[2]
  folding stability dG unfold: 12 ± 0.502 kJ/mol
[3]
  folding stability dG unfold: 7.38 ± 0.243 kJ/mol

## SAGGSAGGSEMEVKVTVEPAPAGAPPGAVVRVEVEFEDGFRITVRFTFVDGKLRAEVTEIKPVSAGGSAGGS [r12_1049_TrROS_Hall]
[1]
  folding stability dG unfold: 14.1 ± 0.418 kJ/mol
[2]
  folding stability dG unfold: 12.2 ± 0.356 kJ/mol
[3]
  folding stability dG unfold: 15.3 ± 0.255 kJ/mol

## SAGGSAGGSEPEEPEYILIERVEAGEKPKITITFKDGTKKEIEVKPGETILIKVPKDAKIEVESAGGSAGGS [r12_553_TrROS_Hall]
[1]
  folding stability dG unfold: 3.93 ± 0.837 kJ/mol
[2]
  folding stability dG unfold: 4.11 ± 0.28 kJ/mol
[3]
  folding stability dG unfold: 4.6 ± 0.544 kJ/mol

## SAGGSAGGSETRVLVRPLDGAIVIEAYRRLPDGSWVLAERIVIPTKGDDPESIARAQEVIDKLSAGGSAGGS [r12_169_TrMRF]
[1]
  folding stability dG unfold: 18.3 ± 0.326 kJ/mol
[2]
  folding stability dG unfold: 15.7 ± 0.247 kJ/mol
[3]
  folding stability dG unfold: 19.5 ± 0.364 kJ/mol

## SAGGSAGGSETVTLTLVVDSPEEAKALIDALKKAGIKEVTLEEKDGKLVLTITMSKEELEKLKSAGGSAGGS [r12_846_TrROS_Hall]
[1]
  folding stability dG unfold: 14.3 ± 0.837 kJ/mol
[2]
  folding stability dG unfold: 9.68 ± 0.962 kJ/mol
[3]
  folding stability dG unfold: 15.9 ± 0.544 kJ/mol

## SAGGSAGGSETVVIKIEVSPEELEKLKEALEEAGYEVEIRVERDENGKLTVTVTIRLPPGVKPSAGGSAGGS [r12_653_TrROS_Hall]
[1]
  folding stability dG unfold: 12 ± 0.36 kJ/mol
[2]
  folding stability dG unfold: 13.3 ± 0.711 kJ/mol
[3]
  folding stability dG unfold: 10.8 ± 0.289 kJ/mol

## SAGGSAGGSEVKTITLTIKNKETNKEIKIEVQVFKNEDGELVFIAKAEITYNGKKYTFTVLLPSAGGSAGGS [r12_619_TrROS_Hall]
[1]
  folding stability dG unfold: 18.5 ± 1.3 kJ/mol
[2]
  folding stability dG unfold: 16 ± 1.13 kJ/mol
[3]
  folding stability dG unfold: 18.3 ± 0.669 kJ/mol
